B1: TPR t1 (parent)
chain: GACCAAUCUGCCCUCAGAGCUCGAGAACAUCUUCGGAUGCAGAGGAGGCAGGCUUCGGUGGCGCGAUAGCGCCAACGUCCUCAACCUCCAAUGCAUCCCACCACAUGAUGAUGCCUGAAGAGCCUUGGUUUUUUG

Variants of: B1
Assay: polymerase ribozyme fitness, log enrichment relative to wild type (log ratio); higher = more active; in vitro selection for triplet polymerase activity
Method in brief: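 Libraries of mutants in each subunit of a heterodimeric triplet polymerase ribozyme were generated by PCR and transcribed. In triplicate, each went through one in vitro selection round: annealing with biotinylated primer, partner subunit and triplets; frozen incubation at −7 °C; gel excision of extended constructs; streptavidin-bead capture; RT-PCR. Fitness, taken from Illumina sequencing of input and output libraries, is the logarithm of a genotype's enrichment over wild-type enrichment, averaged across replicates with inverse-variance weights. The logarithm is base 2, and genotypes needed ≥10 input reads and ≥1 read per output to be kept.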
With C28G C40A G71A C94U G110C the “polymerase ribozyme fitness (log ratio)” value was -1.03. In the case of U7G C34U G69U C123U U133C, the “polymerase ribozyme fitness (log ratio)” value is reported as 1.52. With C11U G42U C101A the “polymerase ribozyme fitness (log ratio)” value was -3.62. For A5G U9C C124U, the “polymerase ribozyme fitness (log ratio)” value was 1.89. With C12G A18C C56U C80U U112G the “polymerase ribozyme fitness (log ratio)” value was -4.94. In the case of U14G C15U A37U C56A A66C, the “polymerase ribozyme fitness (log ratio)” value is reported as -5.37. In the case of A43G G69U C89U, the “polymerase ribozyme fitness (log ratio)” value is reported as -0.177. In the case of C64U G77A, the “polymerase ribozyme fitness (log ratio)” value is reported as -0.391. For C94U A111G, the “polymerase ribozyme fitness (log ratio)” value was 0.127. In the case of C49G G113A, the “polymerase ribozyme fitness (log ratio)” value is reported as -1.08. With C22G G47U the “polymerase ribozyme fitness (log ratio)” value was -4.11. In the case of C53G G63A A111C A119G, the “polymerase ribozyme fitness (log ratio)” value is reported as -1.67. With C79A G128C the “polymerase ribozyme fitness (log ratio)” value was -3.31. In the case of A29U U130G, the “polymerase ribozyme fitness (log ratio)” value is reported as -2.07. For G44C C49U, the “polymerase ribozyme fitness (log ratio)” value was -2.11. For A27C G44U C64U, the “polymerase ribozyme fitness (log ratio)” value was -4.14. With U14A U54A the “polymerase ribozyme fitness (log ratio)” value was -2.74. With G45U U129G U132A the “polymerase ribozyme fitness (log ratio)” value was -3.85. With A27U G61C C97U U131A the “polymerase ribozyme fitness (log ratio)” value was -4.99. For C12U C53U C98U U132A, the “polymerase ribozyme fitness (log ratio)” value was -0.748. For A18U G42A C53G G71C C85U C89A, the “polymerase ribozyme fitness (log ratio)” value was -4.28. For C15G U96C G117C U130G, the “polymerase ribozyme fitness (log ratio)” value was 0.208. For C8U C70U G110A, the “polymerase ribozyme fitness (log ratio)” value was -1.5. For G39U G45U G48A C73A C79G G113A, the “polymerase ribozyme fitness (log ratio)” value was -5.88. For A37U G69A A83U U96A C124U U131A, the “polymerase ribozyme fitness (log ratio)” value was -1.63. For G45A C86A, the “polymerase ribozyme fitness (log ratio)” value was -1.9. For C12U G71U, the “polymerase ribozyme fitness (log ratio)” value was 0.0835. With A18C C40A U78G C82G A121U U130A the “polymerase ribozyme fitness (log ratio)” value was -3.87. For A43U C88A, the “polymerase ribozyme fitness (log ratio)” value was -1.18. For U78C U87A U130C, the “polymerase ribozyme fitness (log ratio)” value was 0.517. In the case of G44A C70U A83G U96C G110U, the “polymerase ribozyme fitness (log ratio)” value is reported as -6.41. For C72U U96C G135U, the “polymerase ribozyme fitness (log ratio)” value was -1.42. For C76U A83U, the “polymerase ribozyme fitness (log ratio)” value was -0.0435. In the case of U38G C72G, the “polymerase ribozyme fitness (log ratio)” value is reported as -0.641. With C13U G42C the “polymerase ribozyme fitness (log ratio)” value was -0.781. For U7A C31U A111G, the “polymerase ribozyme fitness (log ratio)” value was -4.76. With G51A G60C U92C U130A the “polymerase ribozyme fitness (log ratio)” value was -6.22. For C22G C62G, the “polymerase ribozyme fitness (log ratio)” value was -4.53. In the case of C53G U112C C124U, the “polymerase ribozyme fitness (log ratio)” value is reported as 1.27. With C13A A95G U109A the “polymerase ribozyme fitness (log ratio)” value was -6.28. With C20U C85U A100U the “polymerase ribozyme fitness (log ratio)” value was -3.48. For G10A C82A A95U, the “polymerase ribozyme fitness (log ratio)” value was -0.318. In the case of U14C C70G, the “polymerase ribozyme fitness (log ratio)” value is reported as -4.01. For G45U U92C, the “polymerase ribozyme fitness (log ratio)” value was -2.47. For C49A G60A A121C G122A, the “polymerase ribozyme fitness (log ratio)” value was 0.833. With C11A C28G C80U the “polymerase ribozyme fitness (log ratio)” value was -3.39. For C13U A18C A37C G39U G57A, the “polymerase ribozyme fitness (log ratio)” value was -6.61. In the case of U14G C72U G135U, the “polymerase ribozyme fitness (log ratio)” value is reported as -2.55. For C70U U112A U116A, the “polymerase ribozyme fitness (log ratio)” value was -1.48. In the case of C12U C102U, the “polymerase ribozyme fitness (log ratio)” value is reported as -1.83. For A6U G10A C22U C82A, the “polymerase ribozyme fitness (log ratio)” value was -5.33. In the case of C15G G42A G69U C88G, the “polymerase ribozyme fitness (log ratio)” value is reported as -2.25. With A27U C64U the “polymerase ribozyme fitness (log ratio)” value was -2.76. In the case of G51C A91C U112A U131C, the “polymerase ribozyme fitness (log ratio)” value is reported as -6.14. For G63U C70G C89A A90U A100U A121G, the “polymerase ribozyme fitness (log ratio)” value was -2.02. With A37U G117C G122U the “polymerase ribozyme fitness (log ratio)” value was -5.5. In the case of G44U G47U C49U C72A A74G U96G U132A, the “polymerase ribozyme fitness (log ratio)” value is reported as -5.92. With C11A C12U A37G C73U U78A U131A the “polymerase ribozyme fitness (log ratio)” value was -0.943. With U7G C15A A16G C53A C64U the “polymerase ribozyme fitness (log ratio)” value was -1.35. In the case of A5C G113A, the “polymerase ribozyme fitness (log ratio)” value is reported as -1.96. With A27C U54C C70U the “polymerase ribozyme fitness (log ratio)” value was -4.38. With C86G C115U the “polymerase ribozyme fitness (log ratio)” value was -2.67. For A46C G63A U96A, the “polymerase ribozyme fitness (log ratio)” value was -2.58. For C13A G42A G69U A111C U116A U129G, the “polymerase ribozyme fitness (log ratio)” value was -4.99. In the case of A41G C76U, the “polymerase ribozyme fitness (log ratio)” value is reported as -0.163. In the case of C80A A118G, the “polymerase ribozyme fitness (log ratio)” value is reported as -3.23. For C89G, the “polymerase ribozyme fitness (log ratio)” value was -1.19. For A29G C72A G113A G128A, the “polymerase ribozyme fitness (log ratio)” value was -2.62. In the case of C4A C64U, the “polymerase ribozyme fitness (log ratio)” value is reported as -1.24. For C80U G117A, the “polymerase ribozyme fitness (log ratio)” value was -2.28. With G17U C40G C99G A111U the “polymerase ribozyme fitness (log ratio)” value was -6.82. In the case of G17U G57A C101A G107U G120C G127A U132C, the “polymerase ribozyme fitness (log ratio)” value is reported as -5.32. For C11G C76A C79U A90U A119C G120U, the “polymerase ribozyme fitness (log ratio)” value was -0.651. For G39A G63U C82U U133G, the “polymerase ribozyme fitness (log ratio)” value was -2.41. In the case of C72A C76A, the “polymerase ribozyme fitness (log ratio)” value is reported as -1.85. With C13G G36U C101U U112C the “polymerase ribozyme fitness (log ratio)” value was -1.75. With C13G U21C C49U C53G G117A A119G the “polymerase ribozyme fitness (log ratio)” value was -5.71. With C8U G44U the “polymerase ribozyme fitness (log ratio)” value was -1.28. For A6G A90U, the “polymerase ribozyme fitness (log ratio)” value was -0.939. In the case of A46C U78A, the “polymerase ribozyme fitness (log ratio)” value is reported as -0.208. For C34A U129G, the “polymerase ribozyme fitness (log ratio)” value was -3.7. In the case of G57A G63U U78C A95C C115A, the “polymerase ribozyme fitness (log ratio)” value is reported as -2.54. For A37C G128C, the “polymerase ribozyme fitness (log ratio)” value was -3.32. In the case of U9A A46G C53G G113U, the “polymerase ribozyme fitness (log ratio)” value is reported as -1.54.

Reference: the RNAGym collection of RNA variant scans (doi:10.1073/pnas.2313332121)
